Measured values reported in paper PMC8561734, “Structural basis for SdgB- and SdgA-mediated glycosylation of staphylococcal adhesive proteins” (Acta Crystallographica. Section D, Structural Biology, 2021).
Where no end group is shown, it is not given here. The star is where a group is joined. βGlcNAc = CC(=O)N[C@@H]1[C@@H](O)[C@H](O)[C@@H](CO)O[C@H]1*

B1: SdgB (glycosyltransferase, Staphylococcus aureus USA300) (enzyme)
chain: MNYFVGNSLGVNLTGIEKAIINRLNLFKEMGRPAQCVFLSWNRYLYRNAQNYITSSDYINMYDFFQEATYLERNEPFDWLSYWTDECHYTLKHVENSHDFRIYDQERFLMYAHFQDPKYRILDYVNHFDSQRRKVKRDFYDVRGFLSCSRILVDKQQTLCEFFYNPEGDTKLEKYFSYKDGKPEVQKIIVYYANKQYFFNNETELGAFFIKQLYQHGDLFFSDRNVYTAPIFNLTPESIPVVAVLHSTHIKNIDALDSSPFKNVYKAMFENLSRYRAIIVSTEQQKLDVEKRINHTIPVVNIPVGYSETIDTPVQTLDQRSVKLISVARYSPEKQLHQQIELIKRLVSYVPKIELHMYGFGSESKKLNELIQKYGLENHVYLRGFLSNLDQEYSDAYLSLITSNMEGFSLALLESLAHGVPVISYDIKYGPNELITSDFNGYLITKNDEDALFDKVKYVIDHPEVQQRLSKGSLAKAQQYSKASLIKQWDQFVRLI
notes: SdgB, O-GlcNAc glycosyltransferase of S. aureus strain USA300, gene SAUSA300_0550, cloned into pET-21a(+); theoretical monomer mass 59.5 kDa; A selenomethionine-substituted form was used only for phasing; also called SdgB_(quaternary); source: E. coli Rosetta 2(DE3)pLysS, purified (HiTrap Chelating, HiTrap Q, Superdex 200)

Experiments:
SdgB [1] = biological target: T1, SdgB (Staphylococcus aureus, UniProt A0A0H2XGN0); test: X-ray crystallography; details: donor-binding site, closed form
T1 construct: gene SAUSA300_0550; full-length, C-terminal His6 tag (pET-21a), E. coli Rosetta 2(DE3)pLysS; residues 1-496 compared

SdgB [2] = biological target: T1, SdgB; test: MALDI-MS O-GlcNAcyltransferase assay; format: biochemical; details: 10 mM donor; acceptor DSD or DSDSD 3 mM, 5 uM enzyme, 20 mM HEPES pH 7.5, 150 mM NaCl, 1 mM MgCl2, 37 C, 2 h
[3] = biological target: SdgA (glycosyltransferase, Staphylococcus aureus USA300) (Staphylococcus aureus (strain USA300)); test: AUC; sedimentation velocity; SdgA at 4.5 µM; 30 000 rev/min
[4] = biological target: SdgA (glycosyltransferase, Staphylococcus aureus USA300) (Staphylococcus aureus (strain USA300)); test: AUC; sedimentation equilibrium; SdgB 1 µM, SdgA 4.5 µM; 20 mM HEPES pH 7.5, 150 mM NaCl, 1 mM MgCl2; 9000 and 15 000 rev/min; global fit to a monomer–dimer self-association model (dimer to monomers)
[5] = biological target: the molecule itself; test: as above
[6] = biological target: the molecule itself; test: SEC-MALS; SdgB 0.22 mg injected; Superdex 200 Increase 10/300 GL; 20 mM Tris–HCl pH 7.5, 200 mM NaCl; 0.5 ml/min
[7] = biological target: B1; test: crystal structure; SdgB crystal (0.2 M MgCl2, 0.1 M Tris–HCl pH 8.5, 25% PEG 3350) quick-soaked with 6.14 mM UDP and 2.45 mM 5-mer peptide DSDSD for 30 min; details: both partners purified
[8] = biological target: T2, SdgB (glycosyltransferase, Staphylococcus aureus USA300) (Staphylococcus aureus (strain USA300), UniProt A0A0H2XGN0 1-496); test: SPR
T2 chain: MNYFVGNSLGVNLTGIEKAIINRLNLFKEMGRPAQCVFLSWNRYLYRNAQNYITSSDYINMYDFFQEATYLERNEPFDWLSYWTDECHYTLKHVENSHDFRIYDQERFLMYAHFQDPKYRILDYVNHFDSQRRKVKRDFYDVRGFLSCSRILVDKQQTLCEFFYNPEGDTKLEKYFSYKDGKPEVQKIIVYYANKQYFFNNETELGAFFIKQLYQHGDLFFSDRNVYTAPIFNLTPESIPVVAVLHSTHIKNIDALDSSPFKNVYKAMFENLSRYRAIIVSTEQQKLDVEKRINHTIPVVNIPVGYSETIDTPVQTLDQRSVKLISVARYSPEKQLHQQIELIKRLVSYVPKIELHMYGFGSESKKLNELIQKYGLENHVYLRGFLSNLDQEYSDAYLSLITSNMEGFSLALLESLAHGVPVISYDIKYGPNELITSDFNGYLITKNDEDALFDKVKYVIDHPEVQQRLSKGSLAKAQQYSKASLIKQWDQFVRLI

[9] = biological target: B1; test: SPR; SdgB immobilised on a PEG-based sensor chip (1062 RU); SdgA 0.39–25.0 µM as analyte; HBS-EP (10 mM HEPES pH 7.4, 150 mM NaCl, 0.03 mM EDTA, 0.005% Tween 20); 20°C; kinetic fit with Scrubber2; details: both partners purified
[10] = biological target: B1; test: crystal structure; SdgB crystal (20 mM CaCl2, 85 mM trisodium citrate pH 5.6, 25.5% PEG 4000, 15% glycerol) soaked with 2.66 mM 9-mer SD-repeat peptide and 9.60 mM UDP-GlcNAc for 7.5 h; details: both partners purified

Molecule: O=c1ccn([C@@H]2O[C@H](COP(=O)(O)OP(=O)(O)O)[C@@H](O)[C@H]2O)c(=O)[nH]1 [UDP]
- X-ray crystallography (SdgB [1]; complex with cleaved GlcNAc and diGlcNAcylated 9-mer, 2.5 A, also seen with DSDSD in a second structure (7VFM)): distinct electron density for UDP and GlcNAc was observed in the cleft

Molecule: CC(=O)N[C@H]1[C@@H](OP(=O)(O)OP(=O)(O)OC[C@H]2O[C@@H](n3ccc(=O)[nH]c3=O)[C@H](O)[C@@H]2O)O[C@H](CO)[C@@H](O)[C@@H]1O [UDP-GlcNAc]
- MALDI-MS O-GlcNAcyltransferase assay (SdgB [2]): converted into mono-GlcNAcylated forms by SdgB but not by SdgA

Molecule: CC(=O)N[C@H]1C(O)O[C@H](CO)[C@@H](O)[C@@H]1O (some centres unmarked) [GlcNAc]
- X-ray crystallography (SdgB [1]; cleaved from soaked UDP-GlcNAc, with UDP and diGlcNAcylated 9-mer): distinct electron density for UDP and GlcNAc was observed in the cleft

Molecule: SdgA (glycosyltransferase, Staphylococcus aureus USA300) (from UniProt A0A0H2XI10 1-490) (enzyme)
- stoichiometry N [3]: 2
- Kd [4]: 14.1 µM

Molecule: B1
- Kd [5]: 0.926 µM
- stoichiometry N [6]: 2

B2: 5-mer SD-repeat peptide Asp-Ser-Asp-Ser-Asp (DSDSD) (peptide)
peptide: DSDSD
notes: serine–aspartate repeat as in the SDR domains of staphylococcal SDR proteins (ClfA and others); no one parent protein is named; only SDSD was modelled in the structure; also called 5-mer SDR peptide; source: synthetic peptide
- binding result [7]: binds

B3: SdgA (glycosyltransferase, Staphylococcus aureus USA300) (enzyme)
chain: MNYILGTILESKITGVEKAQINRLKLFKQHGISSKCVYVKWNPYSYTYAKQHQIENDVFTMYDYFQKAINYKKTKQVNWIQYWEKSCRYTLKFVENSNDVRIYDEEQFVMYAHFLDKQYHQLNYVNYFDHKRRKVKRELYDGRGFLSCSRILGEGQRIVLENYYTPNGEIVIQKYFDDIKGKNTLTKVILNEDQHQQFFDTEDELVQYFLHQLCKNNDQIILDRPHELGNVIAGLNQSIPVIVVLHSTHLSGAGNGIKSFYKTVFNNLTRYKAIVVSTEKQCQDISQYIENKIPVINIPVGYVANLKYQFDINQKEKNHIISIARLVENKQIKHQIEVIKQLVTKHPNIQLNIYGHGNGLSEYRQLVEDYHLSEHVKFHGFKTHINEEIAKAELMLSTSKMEGFGLAILESLSVGTPVISYDVDYGPSELIQDGFNGYLVPQGDINQMVEKVDQLLNNTQKLQQFSINSIESAQQYNATTISTKWQNILN
notes: SdgA, glycosyltransferase of S. aureus strain USA300, gene SAUSA300_0549, cloned into pET-21a(+); theoretical monomer mass 60.4 kDa; source: E. coli Rosetta 2(DE3)pLysS, purified (HiTrap Chelating, HiTrap Q, Superdex 200)
- koff [8]: 0.000496 s⁻¹
- Kd [9]: 0.393 µM

B4: diGlcNAcylated 9-mer SD-repeat peptide (DSDSDSDSD) (peptide)
peptide: DSDS(βGlcNAc)DSDS(βGlcNAc)D
notes: serine–aspartate repeat as in the SDR domains of staphylococcal SDR proteins (ClfA and others); no one parent protein is named; Asp1 not modelled in the structure; The peptide was added unmodified; also called GlcNAcylated SD-repeat peptide (9-mer); O-GlcNAcylated SDR peptide (9-mer); source: 9-mer peptide soaked into the SdgB crystal with UDP-GlcNAc and glycosylated in the crystal
- binding result [10]: binds
